{"source": "paper doi:10.1101/2020.03.22.001966", "assay_in_all_cases": "SEC", "key": {"[1]": {"molecular_target": "C9S SqrR, reduced (Rhodobacter capsulatus)"}, "[2]": {"molecular_target": "Acinetobacter baumannii BigR (Acinetobacter baumannii)"}, "[3]": {"molecular_target": "C9S/C41S SqrR (Rhodobacter capsulatus)"}, "[4]": {"molecular_target": "wild-type SqrR (sulfide quinone reductase repressor), reduced (Rhodobacter capsulatus)"}, "[5]": {"molecular_target": "C9S/C107S SqrR (Rhodobacter capsulatus)"}}}
{"substance": "C9S SqrR, reduced (natural protein)", "values": [{"measurement": "stoichiometry N", "setting": "[1]", "value": 2}]}
{"substance": "Acinetobacter baumannii BigR (natural protein)", "values": [{"measurement": "stoichiometry N", "setting": "[2]", "value": 2}]}
{"substance": "C9S/C41S SqrR (natural protein)", "values": [{"measurement": "stoichiometry N", "setting": "[3]", "value": 2}]}
{"substance": "wild-type SqrR (sulfide quinone reductase repressor), reduced (natural protein)", "values": [{"measurement": "stoichiometry N", "setting": "[4]", "value": 2}]}
{"substance": "C9S/C107S SqrR (natural protein)", "values": [{"measurement": "stoichiometry N", "setting": "[5]", "value": 2}]}
